Laboratory results as given in US20240116985A1, “STAPLED PEPTIDES AND METHODS THEREOF” (priority 2020, published 2024).
Starred links: 1 amine or outer side, 2 acyl side, 3 side chain; linkers in the order of their positions; H or OH if unused. Positions of bridges follow the written chain, without caps; N, C: chain ends. Non-standard residues stand in square brackets, D forms with d. Primed or numbered codes have the meaning given here. No end group written: not given here. *: point of attachment. PyrS2″ = (S)-3-amino-1-((pent-4-en-1-yloxy)carbonyl)pyrrolidine-3-carboxylic acid (stapling residue), C=CCCCOC(=O)N1CC[C@@](N[*:1])(C(=O)[*:2])C1; B5(23) = 2-amino-2-(pent-4-en-1-yl)hept-6-enoic acid (2,2-bis(4-pentenyl)glycine), stitching residue, C=CCCCC(CCCC=C)(N[*:1])C(=O)[*:2]; B5(4) = 2,2-bis(4-pentenyl)glycine = 2-amino-2-(pent-4-en-1-yl)hept-6-enoic acid (stitching residue), C=CCCCC(CCCC=C)(N[*:1])C(=O)[*:2]; B5(5) = 2,2-bis(4-pentenyl)glycine, 2-amino-2-(pent-4-en-1-yl)hept-6-enoic acid (stitching residue), C=CCCCC(CCCC=C)(N[*:1])C(=O)[*:2]; TfeGA = (S)-2-amino-3-((carboxymethyl)(2,2,2-trifluoroethyl)amino)propanoic acid, O=C([C@H](CN(CC(=O)[*:3])CC(F)(F)F)N[*:1])[*:2]; PyrS2 = (S)-3-amino-1-((pent-4-en-1-yloxy)carbonyl)pyrrolidine-3-carboxylic acid, C=CCCCOC(=O)N1CC[C@@](N[*:1])(C(=O)[*:2])C1; (Pip)GlnR = (S)-2-amino-5-oxo-5-(piperidin-1-yl)pentanoic acid, O=C(CC[C@H](N[*:1])C(=O)[*:2])N1CCCCC1; B5(3) = 2,2-bis(4-pentenyl)glycine (stitching residue), C=CCCCC(CCCC=C)(N[*:1])C(=O)[*:2]; ProSAm3 = (allylsulfonyl)-D-proline, C=CCS(=O)(=O)N1CCC[C@@H]1C(=O)*; Phe(3-COOH) = N[C@@H](Cc1cccc(C(=O)O)c1)C(=O)O; Phe(2-CF3) = N[C@@H](Cc1ccccc1C(F)(F)F)C(=O)O; Bta = N[C@@H](Cc1csc2ccccc12)C(=O)O; αAllylPro = C=CC[C@@]1(C(=O)O)CCCN1; tBuAla = CC(C)(C)C[C@H](N)C(=O)O; 3Thi = N[C@@H](Cc1ccsc1)C(=O)O; R5 = C=CCCC[C@@](C)(N)C(=O)O; 2F3MeF(3) = Phe analogue; Abu = CC[C@H](N)C(=O)O; Aib = CC(C)(N)C(=O)O

B1: I-1576 (peptide)
peptide: [ProSAm3]D[tBuAla][B5(4)]DDAAFN[PyrS2″][3Thi][Bta]Q-NH2
modifications: staple (positions not given here); staple 4-11; not fully specified (bridges); printed as ProSAm3-Asp-Npg-B5-Asp-Asp-Ala-Ala-Phe-Asn-PyrS2-3Thi-BztA-Gln-NH2; also: staple isomer of earlier-eluting HPLC peak
B2: I-1567 (peptide)
peptide: Ac-[αAllylPro]D[tBuAla][B5(23)]NQAAFN[PyrS2][3Thi][Bta]Q-NH2
modifications: staple 1-4, 4-11; not fully specified; printed as Ac-PL3-Asp-Npg-B5-Asn-Gln-Ala-Ala-Phe-Asn-PyrS2-3Thi-BztA-Gln-NH2
B3: I-1577 (peptide)
peptide: [ProSAm3]D[tBuAla][B5(4)]DDAAFN[PyrS2″][3Thi][Bta]Q-NH2
modifications: staple (positions not given here); staple 4-11; not fully specified (bridges); printed as ProSAm3-Asp-Npg-B5-Asp-Asp-Ala-Ala-Phe-Asn-PyrS2-3Thi-BztA-Gln-NH2; also: staple isomer of later-eluting HPLC peak

The binders below were run against full-length beta-Catenin (Uniprot ID P35222) (Homo sapiens (Human)) (UniProt P35222) (assay: fluorescence polarization competition; full-length beta-catenin, competitor 5FAM-TCF4(10-53)).
Target sequence in this assay (P35222 whole entry): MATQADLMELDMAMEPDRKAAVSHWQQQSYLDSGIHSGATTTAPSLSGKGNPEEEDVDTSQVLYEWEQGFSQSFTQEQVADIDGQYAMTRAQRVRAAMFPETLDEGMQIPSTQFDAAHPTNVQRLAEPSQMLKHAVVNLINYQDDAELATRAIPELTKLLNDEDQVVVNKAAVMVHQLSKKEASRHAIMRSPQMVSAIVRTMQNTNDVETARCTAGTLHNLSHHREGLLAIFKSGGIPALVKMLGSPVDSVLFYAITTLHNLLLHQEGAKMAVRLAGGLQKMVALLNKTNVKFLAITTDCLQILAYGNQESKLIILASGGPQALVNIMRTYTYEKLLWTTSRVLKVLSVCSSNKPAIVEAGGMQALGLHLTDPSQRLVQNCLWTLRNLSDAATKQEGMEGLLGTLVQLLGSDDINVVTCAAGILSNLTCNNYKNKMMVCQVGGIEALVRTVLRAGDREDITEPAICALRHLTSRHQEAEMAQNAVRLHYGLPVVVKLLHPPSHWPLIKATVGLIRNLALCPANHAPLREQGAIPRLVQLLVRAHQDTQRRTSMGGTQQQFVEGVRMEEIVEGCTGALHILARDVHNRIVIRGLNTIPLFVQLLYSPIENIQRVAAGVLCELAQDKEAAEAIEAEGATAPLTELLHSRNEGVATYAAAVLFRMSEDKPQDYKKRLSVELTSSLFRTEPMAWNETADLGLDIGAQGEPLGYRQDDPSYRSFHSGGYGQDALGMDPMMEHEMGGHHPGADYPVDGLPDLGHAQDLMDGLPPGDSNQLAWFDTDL

Binder	IC50 [nM]
Ac-[αAllylPro]D[tBuAla][B5(4)]D[TfeGA]AAFL[PyrS2″][3Thi][Bta]F-NH2 (staple 1-4, 4-11; not fully specified) [I-1749]	145
Ac-[αAllylPro]D[tBuAla][B5(5)]D[TfeGA]AAFL[PyrS2″][3Thi][Bta]L-NH2 (staple 1-4, 4-11) [I-1748]	141
Ac-[αAllylPro]D[tBuAla][B5(4)]D[TfeGA]AAFL[PyrS2″][3Thi][Bta]L-NH2 (staple 1-4, 4-11; also: -CH=CH- in each staple reduced to -CH2-CH2-) [I-1753]	802
Ac-[αAllylPro]D[tBuAla][B5(4)]D[TfeGA]AAFL[PyrS2″][3Thi][Bta]V-NH2 (staple 1-4, 4-11; not fully specified) [I-1752]	87
Ac-[αAllylPro]D[tBuAla][B5(5)]D[TfeGA]AAFL[PyrS2″][3Thi][Bta]F-NH2 (staple 1-4, 4-11) [I-1750]	104
Ac-[αAllylPro]D[tBuAla][B5(4)]D[TfeGA]AAFT[PyrS2″][3Thi][Bta]L-NH2 (staple 1-4, 4-11; also: -CH=CH- in each staple reduced to -CH2-CH2-) [I-1754]	660
Ac-[αAllylPro]D[tBuAla][B5(4)]D[TfeGA]AAFL[PyrS2″][3Thi][Bta]V-NH2 (staple 1-4, 4-11; not fully specified) [I-1751]	104

These binders were tested against full-length beta-Catenin (Uniprot ID P35222) (Homo sapiens (Human)) (UniProt P35222) (assay: fluorescence polarization competition; full-length beta-catenin, 5FAM-TCF4(10-53) probe as competitor).
Target sequence in this assay (P35222 2-781 limits assumed): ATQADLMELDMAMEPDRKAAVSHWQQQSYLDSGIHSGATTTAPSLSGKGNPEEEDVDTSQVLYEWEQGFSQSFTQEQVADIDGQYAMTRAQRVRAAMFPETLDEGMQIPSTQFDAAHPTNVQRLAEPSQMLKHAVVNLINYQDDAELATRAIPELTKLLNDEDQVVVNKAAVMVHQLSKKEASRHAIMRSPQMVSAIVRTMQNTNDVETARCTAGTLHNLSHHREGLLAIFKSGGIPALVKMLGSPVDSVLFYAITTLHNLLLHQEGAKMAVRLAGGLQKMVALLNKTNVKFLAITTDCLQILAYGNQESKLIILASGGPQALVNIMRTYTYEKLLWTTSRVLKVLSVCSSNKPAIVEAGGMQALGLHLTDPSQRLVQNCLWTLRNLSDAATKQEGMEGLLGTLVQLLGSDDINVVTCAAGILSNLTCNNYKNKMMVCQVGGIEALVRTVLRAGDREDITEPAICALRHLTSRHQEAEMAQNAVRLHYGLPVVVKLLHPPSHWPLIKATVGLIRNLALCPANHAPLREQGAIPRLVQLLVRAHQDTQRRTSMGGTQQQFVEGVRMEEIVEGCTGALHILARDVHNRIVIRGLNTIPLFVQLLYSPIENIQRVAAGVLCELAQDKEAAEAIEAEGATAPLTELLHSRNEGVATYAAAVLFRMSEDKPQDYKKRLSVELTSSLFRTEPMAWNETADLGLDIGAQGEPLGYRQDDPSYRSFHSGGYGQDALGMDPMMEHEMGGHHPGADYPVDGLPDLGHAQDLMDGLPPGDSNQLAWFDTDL

Binder	IC50 [nM]
Ac-[αAllylPro]D[tBuAla][B5(3)]NT[Aib]AFN[PyrS2″][3Thi][Bta]K-NH2 (staple 1-4, 4-11) [Ac-PL3-Asp-Npg-B5-Asn-Thr-Aib-Ala-Phe-Asn-PyrS2-3Thi-BztA-Lys-NH2]	165
Ac-[αAllylPro]D[tBuAla][B5(4)]SNAAFN[PyrS2][3Thi][Bta]Q-NH2 (staple 1-4, 4-11) [I-1561]	2600
Ac-[αAllylPro]D[tBuAla][B5(4)]LNAAFN[PyrS2][3Thi][Bta]Q-NH2 (staple 1-4, 4-11; also: staple isomer of earlier-eluting HPLC peak) [I-1562]	5020
Ac-[αAllylPro]D[tBuAla][B5(5)]NT[Aib]AFN[PyrS2″][3Thi][Bta]W-NH2 (staple 1-4, 4-11) [Ac-PL3-Asp-Npg-B5-Asn-Thr-Aib-Ala-Phe-Asn-PyrS2-3Thi-BztA-Trp-NH2]	754
Ac-[αAllylPro]D[tBuAla][B5(4)]LNAAFN[PyrS2][3Thi][Bta]Q-NH2 (staple 1-4, 4-11; also: staple isomer of later-eluting HPLC peak) [I-1563]	2850
Ac-[αAllylPro]D[tBuAla][B5(4)]NYAAFN[PyrS2][3Thi][Bta]Q-NH2 (staple 1-4, 4-11; also: staple isomer of earlier-eluting HPLC peak) [I-1568]	7180
B1	224
Ac-[αAllylPro]D[tBuAla][B5(5)]NT[Aib]AFN[PyrS2″][3Thi][Bta]L-NH2 (staple 1-4, 4-11) [Ac-PL3-Asp-Npg-B5-Asn-Thr-Aib-Ala-Phe-Asn-PyrS2-3Thi-BztA-Leu-NH2]	627
Ac-[αAllylPro]D[tBuAla][B5(3)]D[TfeGA]AAFL[PyrS2″][3Thi][Bta][(NHEt)GlnR]A-NH2 (staple 1-4, 4-11) [Ac-PL3-Asp-Npg-B5-Asp-TfeGA-Ala-Ala-Phe-Leu-PyrS2-3Thi-BztA-[NHEt]GlnR-Ala-NH2]	14
Ac-[αAllylPro]D[tBuAla][B5(3)]NT[Aib]AFN[PyrS2″][3Thi][Bta]Y-NH2 (staple 1-4, 4-11) [Ac-PL3-Asp-Npg-B5-Asn-Thr-Aib-Ala-Phe-Asn-PyrS2-3Thi-BztA-Tyr-NH2]	310
Ac-[αAllylPro]D[tBuAla][B5(5)]NT[Aib]AFN[PyrS2″][3Thi][Bta]V-NH2 (staple 1-4, 4-11) [Ac-PL3-Asp-Npg-B5-Asn-Thr-Aib-Ala-Phe-Asn-PyrS2-3Thi-BztA-Val-NH2]	475
Ac-[αAllylPro]D[tBuAla][B5(5)]D[Phe(3-COOH)]AAFL[PyrS2″][Phe(2-CF3)][Bta][(NHEt)GlnR]A-NH2 (staple 1-4, 4-11) [Ac-PL3-Asp-Npg-B5-Asp-3COOHF-Ala-Ala-Phe-Leu-PyrS2-2F3MeF-BztA-[NHEt]GlnR-Ala-NH2]	24
Ac-[αAllylPro]D[tBuAla][B5(3)]D[Phe(3-COOH)]QAFL[PyrS2″][2F3MeF(3)][SbMe2NapA]A-NH2 (staple 1-4, 4-11) [Ac-PL3-Asp-Npg-B5-Asp-3COOHF-Gln-Ala-Phe-Leu-PyrS2-2F3MeF-SbMe2NapA-Ala-NH2]	164
Ac-[αAllylPro]D[tBuAla][B5(23)]NQAAFN[PyrS2][3Thi][Bta]Q-NH2 (staple 1-4, 4-11; also: earlier-eluting HPLC staple isomer) [I-1566]	231
B2	182
Ac-[αAllylPro]D[tBuAla][B5(4)]NLAAFN[PyrS2][3Thi][Bta]Q-NH2 (staple 1-4, 4-11) [I-1570]	1340
Ac-[αAllylPro]D[tBuAla][B5(3)]D[TfeGA]AAFL[PyrS2″][3Thi][Bta][Me2Gln]A-NH2 (staple 1-4, 4-11) [Ac-PL3-Asp-Npg-B5-Asp-TfeGA-Ala-Ala-Phe-Leu-PyrS2-3Thi-BztA-Me2Gln-Ala-NH2]	10
Ac-[αAllylPro]D[tBuAla][B5(3)]D[Phe(3-COOH)]QAFL[PyrS2″][Phe(2-CF3)][2F3MeW]A-NH2 (staple 1-4, 4-11) [Ac-PL3-Asp-Npg-B5-Asp-3COOHF-Gln-Ala-Phe-Leu-PyrS2-2F3MeF-2F3MeW-Ala-NH2]	4750
Ac-[αAllylPro]D[tBuAla][B5(3)]D[Phe(3-COOH)][Aib]AF[Abu][PyrS2″][3Thi][Bta][Me2Gln]A-NH2 (staple 1-4, 4-11) [Ac-PL3-Asp-Npg-B5-Asp-3COOHF-Aib-Ala-Phe-Abu-PyrS2-3Thi-BztA-Me2Gln-Ala-NH2]	7
Ac-[αAllylPro]D[tBuAla][B5(4)]NYAAFN[PyrS2][3Thi][Bta]Q-NH2 (staple 1-4, 4-11; also: staple isomer of later-eluting HPLC peak) [I-1569]	2660
Ac-[αAllylPro]D[tBuAla][B5(5)]D[Phe(3-COOH)][Aib]AF[Abu][PyrS2″][3Thi][Bta][(Pip)GlnR]A-NH2 (staple 1-4, 4-11) [Ac-PL3-Asp-Npg-B5-Asp-3COOHF-Aib-Ala-Phe-Abu-PyrS2-3Thi-BztA-[Pip]GlnR-Ala-NH2]	7
Ac-[αAllylPro]D[tBuAla][B5(5)]D[Phe(3-COOH)][Aib]AF[Abu][PyrS2″][3Thi][Bta][(NHEt)GlnR]A-NH2 (staple 1-4, 4-11) [Ac-PL3-Asp-Npg-B5-Asp-3COOHF-Aib-Ala-Phe-Abu-PyrS2-3Thi-BztA-[NHEt]GlnR-Ala-NH2]	7
B3	45
Ac-PD[tBuAla][R5]DDAAFL[PyrS2][3Thi][Bta]Q-NH2 (staple 4-11; also: staple -CH=CH- reduced to -CH2-CH2-) [I-1810]	416
Ac-[αAllylPro]D[tBuAla][B5(5)]D[Phe(3-COOH)]AAFL[PyrS2″][Phe(2-CF3)][Bta][Me2Gln]A-NH2 (staple 1-4, 4-11) [Ac-PL3-Asp-Npg-B5-Asp-3COOHF-Ala-Ala-Phe-Leu-PyrS2-2F3MeF-BztA-Me2Gln-Ala-NH2]	15
Ac-[αAllylPro]D[tBuAla][B5(3)]D[Phe(3-COOH)]QAFL[PyrS2″][Phe(2-CF3)][RbMe2NapA]A-NH2 (staple 1-4, 4-11) [Ac-PL3-Asp-Npg-B5-Asp-3COOHF-Gln-Ala-Phe-Leu-PyrS2-2F3MeF-RbMe2NapA-Ala-NH2]	47
Ac-[αAllylPro]D[tBuAla][B5(3)]D[Phe(3-COOH)][Aib]AF[Abu][PyrS2″][Phe(2-CF3)][Bta][Me2Gln]A-NH2 (staple 1-4, 4-11) [Ac-PL3-Asp-Npg-B5-Asp-3COOHF-Aib-Ala-Phe-Abu-PyrS2-2F3MeF-BztA-Me2Gln-Ala-NH2]	38
Ac-[αAllylPro]D[tBuAla][B5(5)]D[TfeGA]AAFL[PyrS2″][3Thi][Bta][(Pip)GlnR]A-NH2 (staple 1-4, 4-11) [Ac-PL3-Asp-Npg-B5-Asp-TfeGA-Ala-Ala-Phe-Leu-PyrS2-3Thi-BztA-[Pip]GlnR-Ala-NH2]	19
